Assay results published in the nanobody polyreactivity screen of Harvey et al. (2022).

Test: yeast display, Sf9 membrane polyspecificity reagent, FACS + sequencing; frameworks hold sequencing errors
How it was run: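 Synthetic nanobody libraries on Saccharomyces cerevisiae BJ5465 were galactose-induced for 36–48 hours, stained 1 hour at 4 °C with 10% biotinylated, detergent-solubilized Sf9 membrane reagent and enriched on streptavidin microbeads. FACS then separated cells into low and high (top ~1%) gates by anti-HA (expression) and streptavidin (reagent binding) fluorescence. Genes were colony-PCR amplified, MiSeq 2 × 250 sequenced and CDR-length filtered. A clone's polyreactivity label is that of its gate of origin.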

| Sequence | polyreactivity (PSR sort gate) |
| --- | --- |
| QVQLVESGGGLVQAGGSLRLSCAASGIIFRSYTMGWYRQAPGKERELVASITRSGGITYYADSVKGRFTISRDNAKNTVYLQMNSLKPEDTAVYYCAARHRYYYQYRSDYWGQGTQVSVSS | high polyreactivity |
| QVQLVESGGGLVQAGGSLRLSCAASGIIFRTNAMGWYRQAPGKERDFVAAISAGGTRTYYADSVKGRFTISRDNAKNTVYLQMNSLKPEDTAVYYCAARYPEYETEDDYWGQGTQVTVSS | high polyreactivity |
| QVQLVESGGGLVQAGGSLRLSCAASGIIFRTYAMGWYRQAPGKERELVAAINSDGSTYYADSVKGRFTISRDNAKNTVYLQMNSLKPEDTAVYYCAAVVWRIHAYYWAVDGWYYYWGQGTQVTVSS | high polyreactivity |
| QVQLVESGGGLVQAGGSLRLSCAASGIIFRVNTIGWDRQAPGKEREMVARITGAGNTYYADSVNGRCTISRDNAKNSVYLQMNSLKPKDTAVYYCAVREFDKRRVIYYYWGQGTQVTVLS | high polyreactivity |
| QVQLVESGGGLVQAGGSLRLSCAASGIIFRVYAMGWYRQAPGKERELVAAITKGGGRTYYADSVKGRFTISRDNAKNTVYLQMNSLKPEDTAVYYCAARSSSSFEYWGQGTQVTVSS | high polyreactivity |
| QVQLVESGGGLVQAGGSLRLSCAASGIIFRVYAMGWYRQAPGKERELVATITWSGGSTFYADSVKGRFTISRDNAKNTVYLQMNSLKPEDTAVYYCAKRGYVRSGLGRPYADDYWGQGTQVTVSS | low polyreactivity |
| QVQLVESGGGLVQAGGSLRLSCAASGIIFRVYTMGWYRQAPGKERELVATIRTSGDSTYYADSVKGRFTISRDNAKNTVYLQMNSLKPEDTAVYYCAKRRNYWHYYWGQGTQVTVSS | high polyreactivity |
| QVQLVESGGGLVQAGGSLRLSCAASGIIFRYYAMGWYRQAPGKERELVAAISSSGVSTYYADSVKGRFTISRDNAKNNVYLQMNSLKPEDTAVYYCAAVTTWRMDYWGQGTQVNVSS | high polyreactivity |
| QVQLVESGGGLVQAGGSLRLSCAASGIIFRYYTMGWYRQAPGKERELVAAITQSSGRTYYADSVKGRFTISRDNAKNTVYLQMNCLIPEDTAVFYCNVRPLRSYRAVDYWGQGTQVTVSS | high polyreactivity |
| QVQLVESGGGLVQAGGSLRLSCAASGIIFSDYAMGWYRQAPGKERELVAAISRNGGSTYYADSVKGRFTISRDNAKNTVYLQMNSLKPEDTAVYYCAATRRYRYNWGQGTQVTVSS | high polyreactivity |
| QVQLVESGGGLVQAGGSLRLSCAASGIIFSDYAMGWYRQAPGKERELVAAITGGGSTYYADSVKGRFTISPDNAQNTVYLQMNSLKPEDTSVYYCNTDAWHETPVSGYSWGQCTQVTVSS | low polyreactivity |
| QVQLVESGGGLVQAGGSLRLSCAASGIIFSFNAMGWYRQAPGKERELVAAITWRDGSTYYADSVKGRFTISRDNAKNTVYLQMNSLKPEDTAVYYCNADLLDISSYDGMDYWGQGTQVTVSS | low polyreactivity |
| QVQLVESGGGLVQAGGSLRLSCAASGIIFSIYALGWYRPAAGKERELVAAITYSGGRTYYADSVKGRFTISRDNAKNSVYLQMNSLKPEDTAVYYCAAVGYGEYYWGQGTQVTVSS | high polyreactivity |
| QVQLVESGGGLVQAGGSLRLSCAASGIIFSIYAMGLYRQAPGKERELVAVISRSSGSTYYADSVKGRFTISRYNAKNTVYLQMNSLKPEDTAVYYCAARKNRAYGYWGQGTQVTVSS | high polyreactivity |
| QVQLVESGGGLVQAGGSLRLSCAASGIIFSQYAMGWYRQAPGKERELVASISSGGRTNYADSVKGRFTISRDNAKNTVYLQMNSLKPEDTAVYYCATRYRYKRYAASVQYDYWGQGTQVTVSS | high polyreactivity |
| QVQLVESGGGLVQAGGSLRLSCAASGIIFSSYAMGWYRQAPGKERELVADISYTGGSTYYADSVKGRFTISRDNAKNTVYLQMNSLKPEDTAVYYSAAGVYLHYSVDYWGQGTQVTVSS | low polyreactivity |
| QVQLVESGGGLVQAGGSLRLSCAASGIIFSSYVMGWYRQAPGKERELVAAISKSGARTSYADSVKGRFTISRDNAKNTVYLQMNSLKPEDTAVYYCAATYLLERPTSKHPRYDYWGQGTQVTVSS | low polyreactivity |
| QVQLVESGGGLVQAGGSLRLSCAASGIIFSSYVMGWYRQAPGKERELVAAISSRGVSTYYADSVKGRFTISRDNAKNTVYLQMNSLKPEDTAVYYCAGVGPSYVRYYYWGQGTQVTVSS | high polyreactivity |
| QVQLVESGGGLVQAGGSLRLSCAASGIIFSTYAMGWYRQAPGKERELVAAISDGGASTYYADSVKGRFTISRDNAKNTVYLQMNSLKPEDTAVYFCAAVQTAGQFRYGYWGQGTQVTVSS | high polyreactivity |
| QVQLVESGGGLVQAGGSLRLSCAASGIIFSTYAMGWYRQAPGKERELVAAISVSGGRTYYADSVKGRFTISRDNAKNTVYLQMNSLKREDTAVYSCNALSSTEYDYWGQGTQVTVSS | high polyreactivity |
| QVQLVESGGGLVQAGGSLRLSCAASGIIFSWYSMGWYIEAPGKERELVAAISWSGGRTYYSDSVKGRFTISRDNAKNNVYLQMNSLKPEDTAVYYCAAERNRYSHWEARYYWGQGTQVTVSS | high polyreactivity |
| QVQLVESGGGLVQAGGSLRLSCAASGIIFSYYAMGWYRPEHGKEREFVAVITTGGGSTSYADSVKGRFTISRDNAKNTVYLQMNSLKPEDTAVYYCTAGHLGLDGIQDGVDYWGQGTQVTVSS | low polyreactivity |
| QVQLVESGGGLVQAGGSLRLSCAASGIIFTGYAMGWYRQAPGKERELVAAISESGGSTYYADSVKGRFTISRDNAKNTVYLQMNSLKPEDTAVDYCAVDALSITYGYWGQGTQVTVSS | low polyreactivity |
| QVQLVESGGGLVQAGGSLRLSCAASGIIFTINAMGWYRQAPGKERELVAAISGRGARTYYADSVKGRFTISRDNAKNTVYLQMNSLKPEDTAVYYCNAANSRLHGSDYWGQGTQVTVSS | high polyreactivity |
| QVQLVESGGGLVQAGGSLRLSCAASGIIFTNNAIGWYRQAPGKERELGAAITSGGRTYYADSVKGRFTISRDNAKNTVSLQMNSLKPEDTAVYYCNARYYYGGWRVGYWGQGTQLTVSS | high polyreactivity |
| QVQLVESGGGLVQAGGSLRLSCAASGIIFTPYTMGWYRQAPGKERELVAAITGSGGSTYYADSVKGRFTISRDNAKNTVYLQMNSLKPEDTAVYYCAAYKQYRFYRYDYWGQGTQVTVSS | high polyreactivity |
| QVQLVESGGGLVQAGGSLRLSCAASGIIFTRYAMGWYRQAPGKERELVAAITTSGGRTYYADSVKGRFTISRDNAKNTVYLQMNSLKPEDTAVYYCAVSGHARYDYWGQGTQVTVSS | high polyreactivity |
| QVQLVESGGGLVQAGGSLRLSCAASGIIFTRYVMGWYRQAPGKQRELVAVISRRGGTTYYADSVKGRFTISRDNAKNTVYLQMNSLKPEVTAVYYCNTDGYRYPGSGINYYYWGQGTQVTVSS | high polyreactivity |
| QVQLVESGGGLVQAGGSLRLSCAASGIIFTSNTMGWYRQAPGKEREFVASINWNGSSTYADSVKGRFTISRDNAKNTVFLQMNSLKPEDTAVYDCNADYYRNSVQFSLYDYWGHGTQVTVSS | low polyreactivity |
| QVQLVESGGGLVQAGGSLRLSCAASGIIFTSYVMGWYRQAPGKERELVAAISSDGGSTYYADSVKGRFTISRDNAKNTVYLQMNSLKPEDTAVYYCAVDWLEIGDTGFDYWGQGTQVTVSS | low polyreactivity |
